Assay results from patent publication US20100151486A1, “OSTEOPONTIN FUNCTIONAL EPITOPES, MONOCLONAL ANTIBODIES AGAINST THE EPITOPES AND USES THEREOF” (SHANGHAI NATIONAL ENGINEERING RESEARCH CENTER OF A, priority 2007, published 2010).

Assays:
mouse OPN protein = biological target: T1, mouse OPN protein (Mus musculus, UniProt P10923); experiment: Western blot of 1A12 against mouse OPN protein; assay type: binding
T1 construct: made in house; host or cells: Pichia (yeast), culture supernatant
Description: 100 ug human OPN and an equal volume of Freund's adjuvant were emulsified, and injected intraperitoneally into BALB/C mice. Boost was given every two weeks at the same dose. […] The mouse spleen lymphocytes were fused with NS-1 cells using the classic PEG method. 96-well plate coated with 10 μg/ml human OPN was used for repeated screening by ELISA method to obtain hybridoma cell line 1A12 which was capable of stably expressing anti-human OPN antibody. The strain of 1A12 was amplified, and administrated to BALB/C mice in 5×10^6 cells/mouse (i.p.). The ascites was collected from the 10th day after the injection. The anti-human OPN monoclonal antibody was purified by affinity chromatography using protein A column.

MDA-MB-435s cells [1] = experiment: Scratch wound healing assay; assay type: cell-based; settings: antibody 25 μg/ml; 24 hours
Description: The MDA-MB-435s cells cultured in a 12-wells plate to almost confluent (90%) washed with PBS and starved overnight with serum-free DMEM. Scratches were made on the cell monolayer using a 10 μl pipette, and PBS was added to wash away the floating cells. The test groups were treated with 25 μg/ml of the murine anti-human OPN antibody 1A12, the human-murine chimeric antibody c1A12 and the humanized antibody h1A12, and the control group, 25 μg/ml of the irrelevant antibody. The cells were incubated in an incubator at 37° C. for 24 hours. The result was expressed as the number of the cells that cross the base line.

MDA-MB-435s cells [2] = experiment: Clone formation on soft agar assay; assay type: cell-based; settings: antibody 25 μg/ml every other day; 3 weeks
Description: The assay of clone formation on soft agar was conducted using a double-layer soft agar system. 2.5% melted agar was mixed the DMEM medium pre-warmed at 37° C. to formulate a 0.5% agar solution, which was then diluted with DMEM to a 0.3% agar solution. To each well of a 24-well plate was added 500 μl of a 0.5% agar solution, which was allowed to gel at 4° C., and then kept warm in an incubator at 37°C. The MDA-MB-435s cells were detached using 0.2% .EDTA and suspended in the 0.3% agar solution at the concentration of 5×10^3 cells/ml. 500 μl of the cell suspension was added each well and left to gel. From the second day, the cells were respectively treated with 1A12, c1A12, h1A12 or the irrelevant antibody (23C3D3) (25 μg/ml) every other day. After 3 weeks, the colony formation ability was evaluated by measuring the size of colonies containing more than 10 cells.

T1 sequence (P10923 17-294): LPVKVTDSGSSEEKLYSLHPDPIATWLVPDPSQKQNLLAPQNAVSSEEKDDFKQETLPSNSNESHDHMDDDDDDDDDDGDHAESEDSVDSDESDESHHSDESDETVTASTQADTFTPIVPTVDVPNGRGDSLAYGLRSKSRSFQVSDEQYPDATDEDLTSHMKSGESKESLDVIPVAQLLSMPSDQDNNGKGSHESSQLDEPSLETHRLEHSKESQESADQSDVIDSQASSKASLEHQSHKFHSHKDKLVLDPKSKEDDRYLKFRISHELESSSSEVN

B1: 1A12: murine anti-hOPN mAb; VH SEQ ID NO: 4, VL SEQ ID NO: 6; from hybridoma 1A12 (antibody, V domains shown)
VH: QVQLEQSGPELVKPGASVKMSCKSSGYTFTTYVMHWVKQKPGQGLEWIGYINPYNDGSKYNEKFKGKATLTSDKSSNTAYMELSSLTSEDSAVYYCASHYGGSPAYWGQGTLVTVSA
VL: DILMTQTPLSLPVSLGDQASISCRSSQSLVHSNGNTYLHWYLQKPGQSPKLLIYKVSNRFSGVPDRFSGSGSGTDFTLKISRVEAEDLGVYFCSQSTHVPWTFGGGTKLEIKR
modifications: amino acid sequence of the heavy chain variable region in 1A12; amino acid sequence of the light chain variable region in 1A12
notes: murine anti-hOPN mAb; from hybridoma 1A12
cross-reaction with the mouse OPN protein (mouse OPN protein): cross-reacted | inhibition of the reparation of the scratches and damages (MDA-MB-435s cells [1]): effectively inhibit | inhibition of clone size formed by MDA-MB-435s cells on soft agar (MDA-MB-435s cells [2]): could inhibit the clone size
